{
  "source": "paper PMC13293227",
  "target": "T1, GST-ZAKα 701-800 (Homo sapiens, UniProt Q9NYL2 701-800)",
  "T1 sequence": "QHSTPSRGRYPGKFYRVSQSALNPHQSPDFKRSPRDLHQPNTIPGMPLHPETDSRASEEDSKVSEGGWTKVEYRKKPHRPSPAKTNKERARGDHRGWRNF",
  "assay": "EMSA; supershift with GST antibody; EMSA: 20 mM HEPES pH 7.6, 3 mM MgCl2, 40 mM KCl, 5% glycerol, 2 mM DTT, 100 fmol probe in 20 µl, 20 min on ice; 4% native PAGE, 0.25x TBE",
  "settings": "protein: recombinant; tags: GST; label: 5'-IRDye700; single strand, seemingly unstructured",
  "data": [
    {"binder": "AGCUUAGGAAUAUCAAUGUUAAGUAG (ssRNA)", "note": "[ARE-IRDye700]", "values": [
      {"measurement": "binding result", "value": "binds"}
    ]}
  ]
}
